Substitutions are numbered along the chain they refer to.
B1: 112 (protein)
chain: STAIAQEGAAPAAILHPEKWPRPATQRLIDPAVEKRVDALLKQLSVEEKVGQVIQGDIGTITPEDLRKYPLGSILAGGDSGPNGDDRAPPKEWLDLADAFYRVSLEKRPGHTPIPVLFGIDAVHGHGKIGSATIFPHNIALGMTRDPELLRRIGEVTAEEMAATGIDWTFAPCLSVVRDDRWGRTYEGFSEDPEIVAAYSAAIVEGVQGKFGSKDFMAPGRIVASAKHFLADGGTDQGRDQGDARISEDELIRIHNAGYPPAIDAGVLTVMASFSSWQGIKHHGHKQLLTDVLKGQMGFNGFIVGDWNAHDQVPGCTKFNCPTSLIAGLDMYMAADSWKQLYENTLAQVKDGTIPMARLDDAVRRILRVKVLAGLFEKPAPKDRPGLPGLETLGSPEHRAVGREAVRKSLVLLKNDKGTLPLSPKARVLVAGDGADNIGKQSGGWTISWQGTGNRNDEFPGATSILGGIRDAVADAGGSVEFDVAGQYKTKPDVAIVVFGEEPYAEFQGDVETLEYQPDQKQDLALLKKLKDQGIPVVAVFLSGRPMWVNPELNASDAFVAAWLPGTEGGGVADVLFTDKAGKVQHDFAGKLSYSWPRTAAQTTVNRGDADYNPLFAYGYGLTYKDKSKVGTLPEESGVPAEARQNAGIYFRAGALRLPGRFL
B2: 113 (protein)
chain: B1 chain with D79N, E159Q, C173A, A201P, F211Y, S225C
B3: 114 (protein)
chain: B1 chain with A97T, F211Y, Q508R
B4: 115 (protein)
chain: B1 chain with M143A, E159V, A163T, A201P, F211Y, S225C, Q487R, A562P
B5: 116 (protein)
chain: B1 chain with M143A, E159V, A162T, C173A, F211Y, S225C, K625Q
B6: 118 (protein)
chain: B1 chain with E159V, A162T, C173A, A198S, F211Y, I222S, S225C
B7: 119 (protein)
chain: B1 chain with D79N, K128N, M143A, E159Q, C173A, A201P, F211Y, S225C
B8: 120 (protein)
chain: B1 chain with K128N, M143A, E159V, A162T, C173A, A198S, L663P
B9: 121 (protein)
chain: B1 chain with D79N, K128N, M143A, D146S, E159V, A162T, A201P
B10: 122 (protein)
chain: B1 chain with M143A, C173A, A201P, F211Y, P219V, S225C
B11: 123 (protein)
chain: B1 chain with E159V, A162T, C173A, A201P, F211Y, P219V
B12: 124 (protein)
chain: B1 chain with K128N, M143A, D146S, C173A, A201P, F211Y, S225C, K339R
B13: 125 (protein)
chain: B1 chain with D79N, K128N, M143A, E159V, C173A, A201P, I222S, S225C
B14: 126 (protein)
chain: B1 chain with K128N, E159V, A162T, C173A, A201P, S225C, Q585R
B15: 127 (protein)
chain: B1 chain with K128N, M143A, D146S, E159V, C173A, A201P, F211Y, I222S, S225C
B16: 128 (protein)
chain: B1 chain with C173A, A201P, F211Y, S225C
B17: 129 (protein)
chain: B1 chain with K128N, M143A, A162T, C173A, A201P, S225C, I535V
B18: 130 (protein)
chain: B1 chain with A24V, D79N, K128N, C173A, A201P, F211Y, I222S, S225C
B19: 131 (protein)
chain: B1 chain with D79N, M143A
B20: 132 (protein)
chain: B1 chain with K91Q, M143A, D146S, E159V, C173A, A201P, F211Y, I222A, S225C
B21: 133 (protein)
chain: B1 chain with F135L, E159V, A162T, A198S, P219V
B22: 213 (protein)
chain: STAIAQEGAGPAAILHPEKWPRPATQRLIDPAVEKRVDALLKQLSVEEKVGQVIQGDIGTITPEDLRKYPLGSILAGGDSGPNGDDRAPPKEWLDLADAFYRVSLEKRPGHTPIPVLFGIDAVHGHGNIGSATIFPHNIALGMTRDPELLRRIGEVTAEEMAATGIDWTFAPALSVVRDDRWGRTYEGFSEDPEIVASYSAAIVEGVQGKYGSKDFMAPGRIVASAKHFLADGGTDQGRDQGDARISEDELIRIHNAGYPPAIDAGVLTVMASFSSWQGIKHHGHKQLLTDVLKGQMGFNGFIVGDWNAHDQVPGCTKFNCPTSLIAGLDMYMAADSWKQLYENTLAQVKDGTIPMARLDDAVRRILRVKVLAGLFEKPAPKDRPGLPGLETLGSPEHRAVGREAVRKSLVLLKNDKGTLPLSPKARVLVAGDGADNIGKQSGGWTISWQGTGNRNDEFPGATSILGGIRDAVADAGGSVEFDVAGQYKTKPDVAIVVFGEEPYAEFQGDVETLEYQPDQKQDLALLKKLKDQGIPVVAVFLSGRPMWVNPELNASDAFVAAWLPGTEGGGVADVLFTDKAGKVQHDFAGKLSYSWPRTAAQTTVNRGDADYNPLFAYGYGLTYKDKSKVGTLPEESGVP
B23: 278 (protein)
chain: STAIAQEGAAPAAMLHPEKWPRPATQRLIDPAVEKRVDALLKQLSVEEKVGQVIQGDIGTITPEDLRKYPLGSILAGGDSGPNGDDRAPPKEWLDLADAFYRVSLEKRPGHTPIPVLFGIDAVHGHGNIGSATIFPHNIALGMTRDPELLRRIGEVTAEEMAATGIDWTFAPALSVVRDDRWGRTYEGFSEDPEIVASYSPAIVEGVQGKYGSKDFMAPGRIVASAKHFLADGGTDQGRDQGDARISEDELIRIHNAGYPPAIDAGVLTVMASFSSWQGIKHHGHKQLLTDVLKGQMGFNGFIVGDWNAHDQVPGCTKFNCPTSLIAGLDMYMAADSWKQLYENTLAQVKDGTIPMARLDDAVRRILRVKVLAGLFEKPAPKDRPGLPGLETLGSPEHRAVGREAVRKSLVLLKNDKGTLPLSPKARVLVAGDGADNIGKQSGGWTISWQGTGNRNDEFPGATSILGGIRDAVADAGGSVEFDVAGQYKTKPDVAIVVFGEEPYAEFRGDVETLEYQPDQKQDLTLLKKLKDQGIPVVAVFLSGRPMWVNPELNASDAFVAAWLPGTEGGGVADVLFTDKAGKVQHDFAGKLSYSWPRTAAQTTVNRGDADYNPLFAYGYGLTYKDRSKVGTLPEESGVPAEARQN

Assay: High throughput cellobiose assay: fold improvement in cellobiase activity of CelA variants over a control enzyme (Tables 2A-2D, 3, 5, 6, 7)
Type: biochemical
Details: 3.3 g/l cellobiose; for Fold improvement over Control Variant No. 5 from Table 2A: 55° C. and pH 6.0; for Fold improvement over Control Variant No. 94 from Table 2B: 55° C. and pH 5.3 (incubation overnight)

Molecule | Fold improvement over Control Variant No. 5 from Table 2A | Fold improvement over Control Variant No. 94 from Table 2B
B1 | +++ (+++ = 6 to 13 fold improvement over control Variant No. 2) | –
B2 | +++ (+++ = 6 to 13 fold improvement over control Variant No. 2) | –
B3 | +++ (+++ = 6 to 13 fold improvement over control Variant No. 2) | –
B4 | ++ (++ = 1.1 to 6 fold improvement over control Variant No. 2) | –
B5 | +++ (+++ = 6 to 13 fold improvement over control Variant No. 2) | –
B6 | +++ (+++ = 6 to 13 fold improvement over control Variant No. 2) | –
B7 | +++ (+++ = 6 to 13 fold improvement over control Variant No. 2) | –
B8 | +++ (+++ = 6 to 13 fold improvement over control Variant No. 2) | –
B9 | ++ (++ = 1.1 to 6 fold improvement over control Variant No. 2) | –
B10 | +++ (+++ = 6 to 13 fold improvement over control Variant No. 2) | –
B11 | ++ (++ = 1.1 to 6 fold improvement over control Variant No. 2) | –
B12 | +++ (+++ = 6 to 13 fold improvement over control Variant No. 2) | –
B13 | +++ (+++ = 6 to 13 fold improvement over control Variant No. 2) | –
B14 | ++ (++ = 1.1 to 6 fold improvement over control Variant No. 2) | –
B15 | +++ (+++ = 6 to 13 fold improvement over control Variant No. 2) | –
B16 | +++ (+++ = 6 to 13 fold improvement over control Variant No. 2) | –
B17 | +++ (+++ = 6 to 13 fold improvement over control Variant No. 2) | –
B18 | +++ (+++ = 6 to 13 fold improvement over control Variant No. 2) | –
B19 | ++ (++ = 1.1 to 6 fold improvement over control Variant No. 2) | –
B20 | +++ (+++ = 6 to 13 fold improvement over control Variant No. 2) | –
B21 | ++ (++ = 1.1 to 6 fold improvement over control Variant No. 2) | –
B22 | – | ++++ (++++ = 1.1 to 1.5 fold improvement over Control No. 3, Variant No. 94)
B23 | – | ++++ (++++ = 1.1 to 1.5 fold improvement over Control No. 3, Variant No. 94)
